We go through two molecules from patent US10829561B2, “Antibodies targeting quiescin sulfhydryl oxidase (QSOX1) and uses of same” (Yeda Research and Development Co. Ltd., priority 2015, dated 2020).

Positions count from the first letter of the chain named. “Also recorded” adds a separate entry of the source.

Experiment [1] has as its system 4T1 murine mammary carcinoma. The experiment in a line: Murine 4T1 breast cancer model, tumor volume. As to conditions: 8 mg/kg doxorubicin once a week, intraperitoneal, vs control mice. The format is in vivo, BALB/c female mice. As to the method:
4T1 mCherry cells were suspended in Hanks' Balanced Salt Solution at a concentration of 2.5×10^6 cells/ml and mixed 1:1 with Cultrex® Basement Membrane Extract. 250,000 cells were injected into the mammary fat pad of 45 BALB/c female mice. Animals were divided into 5 groups containing 9 animals each (as depicted in Table 1B, below). Treatments were administered by intraperitoneal injection, beginning 3 days after cell injection. Tumor dimensions (x,y,z) were measured with a caliper twice a week. Tumor volumes were calculated according to: […]. Animals were weighed once a week. Twenty days post cell injection all animals were sacrificed by CO2 asphyxiation. Tumors and lungs were removed into 4% formaldehyde solution and prepared for histology.
The ability of an antibody inhibiting MmQSOX1 to control tumor growth and metastasis was evaluated in vivo in the 4T1 murine mammary carcinoma breast cancer model previously described [Pulaski and Ostrand-Rosenberg (2001) Mouse 4T1 breast tumor model. Curr. Protoc. Immunol. Chapter 20, Unit 20.2.]. Mice were injected with 4T1 cells together with matrigel, which aided in formation of a localized tumor, and then divided into five groups (as described in Table 1B, above). […] Tumor volumes were measured twice a week. Animals were sacrificed after 20 days, and their tumors and lungs were removed for evaluation.

The next experiment addresses T1, MmQSOX1 (Mus musculus, UniProt Q8BND5).
T1 construct: Recombinant MmQSOX1 is truncated at the carboxy-terminus and so migrates faster than endogenous secreted MmQSOX1; made in house
T1 sequence (Q8BND5 36-550 limits assumed): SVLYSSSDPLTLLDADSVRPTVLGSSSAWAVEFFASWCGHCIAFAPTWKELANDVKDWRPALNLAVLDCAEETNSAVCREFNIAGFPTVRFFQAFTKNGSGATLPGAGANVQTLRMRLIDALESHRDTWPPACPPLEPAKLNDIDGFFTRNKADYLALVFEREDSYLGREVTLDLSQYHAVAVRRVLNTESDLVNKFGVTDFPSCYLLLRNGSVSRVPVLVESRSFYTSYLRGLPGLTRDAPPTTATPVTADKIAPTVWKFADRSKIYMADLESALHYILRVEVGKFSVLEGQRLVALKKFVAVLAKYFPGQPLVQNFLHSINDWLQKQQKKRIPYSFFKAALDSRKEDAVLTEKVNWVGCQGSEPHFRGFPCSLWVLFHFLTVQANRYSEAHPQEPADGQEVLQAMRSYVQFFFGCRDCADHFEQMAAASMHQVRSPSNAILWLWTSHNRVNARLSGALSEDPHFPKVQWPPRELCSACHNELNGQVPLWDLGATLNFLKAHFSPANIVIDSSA
The experiment in a line: Oxygen consumption assay of QSOX1 activity and inhibition (DTT substrate). The format is biochemical. Conditions: 10:1 molar ratio of antibody to enzyme.

A further experiment addresses T2, CpQSOX1 (Cavia porcellus, UniProt O08841).
T2 construct: The CpQSOX1 protein spans residues 34-547 of Cavia porcellus QSOX1; His-tag with thrombin site (inferred from the pET-15b vector, NdeI/BamHI cloning); made in house; host or cells: E. coli
T2 sequence (O08841 34-547): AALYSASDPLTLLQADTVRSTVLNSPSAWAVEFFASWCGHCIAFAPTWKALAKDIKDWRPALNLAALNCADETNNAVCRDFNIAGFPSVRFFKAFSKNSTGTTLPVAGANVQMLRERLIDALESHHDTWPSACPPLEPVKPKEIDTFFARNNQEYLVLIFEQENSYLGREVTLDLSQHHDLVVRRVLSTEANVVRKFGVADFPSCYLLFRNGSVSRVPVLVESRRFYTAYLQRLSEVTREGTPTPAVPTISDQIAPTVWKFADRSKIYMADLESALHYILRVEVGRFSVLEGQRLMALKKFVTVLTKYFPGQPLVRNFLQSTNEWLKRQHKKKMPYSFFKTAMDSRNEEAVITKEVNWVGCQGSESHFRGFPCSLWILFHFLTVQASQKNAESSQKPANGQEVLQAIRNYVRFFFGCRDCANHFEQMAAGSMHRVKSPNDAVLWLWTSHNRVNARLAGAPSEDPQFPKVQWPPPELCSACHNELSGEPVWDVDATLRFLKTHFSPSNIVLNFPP
The experiment is described as above. The format is biochemical. As to conditions: even at 1 μM antibody, 10:1 molar ratio of antibody to enzyme. As to the method:
(§1) Reactions were initiated by DTT injection, and oxygen consumption rates were obtained from initial slopes. […] Measurements were performed 3 times, and resulting rates were averaged. For each mutant, the rate in the presence of inhibitory antibody was divided by the rate in the absence of antibody to get percent activity.
(§2) Three mammalian QSOX1 enzymes, from common experimental organisms and having 78-79% sequence identity with HsQSOX1, were chosen: Mus musculus QSOX1 (MmQSOX1), Rattus norvegicus QSOX1 (RnQSOX1), and Cavia porcellus (CpQSOX1). Enzyme activity was assessed in an oxygen consumption assay on the model substrate dithiothreitol (DTT).

Another experiment has as its target T3, RnQSOX1 (Rattus norvegicus, UniProt Q6IUU3).
T3 construct: made in house
T3 sequence (Q6IUU3 33-750): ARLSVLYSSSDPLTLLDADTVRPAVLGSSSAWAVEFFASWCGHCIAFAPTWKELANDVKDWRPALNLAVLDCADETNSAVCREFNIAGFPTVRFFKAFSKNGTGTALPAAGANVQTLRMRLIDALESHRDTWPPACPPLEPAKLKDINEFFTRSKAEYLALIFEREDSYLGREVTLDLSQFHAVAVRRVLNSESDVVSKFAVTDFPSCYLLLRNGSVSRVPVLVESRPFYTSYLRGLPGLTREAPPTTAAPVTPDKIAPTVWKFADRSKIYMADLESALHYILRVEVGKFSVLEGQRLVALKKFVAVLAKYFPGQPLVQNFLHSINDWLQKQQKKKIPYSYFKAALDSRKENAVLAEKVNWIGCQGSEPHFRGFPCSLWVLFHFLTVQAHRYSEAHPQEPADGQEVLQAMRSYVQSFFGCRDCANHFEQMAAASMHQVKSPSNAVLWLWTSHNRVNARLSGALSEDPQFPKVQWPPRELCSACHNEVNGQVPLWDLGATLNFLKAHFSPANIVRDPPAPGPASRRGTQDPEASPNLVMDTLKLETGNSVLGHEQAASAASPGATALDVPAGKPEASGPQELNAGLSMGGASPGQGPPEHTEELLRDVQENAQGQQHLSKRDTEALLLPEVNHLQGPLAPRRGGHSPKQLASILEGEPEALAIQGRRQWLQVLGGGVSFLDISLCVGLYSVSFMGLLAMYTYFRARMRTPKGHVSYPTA
The experiment is described as above. The format is biochemical. Conditions: even at 1 μM antibody, 10:1 molar ratio of antibody to enzyme. On the procedure:
as §1, §2

The next experiment deals with T4, MmQSOX1 A116P mutant (Mus musculus, UniProt Q8BND5).
T4 construct: made in house
T4 sequence (Q8BND5 36-550 A119P limits assumed): T1 sequence (Q8BND5 36-550 limits assumed) with A84P
The experiment in a line: Oxygen consumption assay, MmQSOX1 mutant mimicking HsQSOX1. As to conditions: 250 nM MAb492.1, 200 μM DTT. It counts as biochemical. As to the method:
as §1
(§3) The first mutant, A116P, was inhibited by about 60% (FIG. 2D), and the second mutant, TLPG(138-141)VFPV, by about 50%.

The target in experiment [2] is T5, MmQSOX1 TLPG(138-141)VFPV mutant (Mus musculus, UniProt Q8BND5, G141V/L139F/T138V).
T5 construct: made in house
T5 sequence (Q8BND5 36-550 T138V/L139F/G141V limits assumed): T1 sequence (Q8BND5 36-550 limits assumed) with T103V, L104F, G106V
The description is as above. As to conditions: 250 nM MAb492.1, 200 μM DTT. It counts as biochemical. As to the method:
as §1, §3

Experiment [3] deals with mouse embryonic fibroblasts (MEFs). The experiment in a line: Laminin immunostaining in mouse fibroblast cultures. It counts as cell-based. As to conditions: MEFs grown for three days in the presence of antibody. On the procedure:
(§4) The assays were conducted essentially as previously described [Ilani T. et al. (2013), supra]. Instead of human fibroblasts, mouse fibroblasts were grown for three days in the presence of various antibodies. HEK 293T cells were used as adhering cells.
(§5) QSOX1 and laminin are secreted from quiescent fibroblasts into the ECM, where QSOX1 promotes laminin incorporation, and consequently the adherence of epithelial cells to the fibroblast monolayer. Thus, intact laminin networks in the ECM and cell adherence indicate functional QSOX1 activity in the ECM [Ilani T. et al. (2013), supra]. Inventors first verified that MmQSOX1 is secreted from confluent mouse embryonic fibroblasts (MEFs) (FIG. 4A). Next, extracellular laminin secreted by MEFs grown for three days in the presence of MAb492.1, MAb316.1, or MAb492gen was stained. […] A quantitative assay of epithelial cell adhesion to MEF monolayers was performed next. Fluorescently labeled epithelial cells were added to MEFs grown in the absence or presence of the antibodies, and adherent cells were quantified.

For experiment [4] the test system is unchanged. The experiment in a line: Epithelial cell adhesion to mouse fibroblast monolayer. The format is cell-based. Conditions: 250 nM or 1 μM antibody; HEK 293T adhering cells. On the procedure:
as §4, §5

Another experiment addresses T6, HsQSOX1 (Homo sapiens, UniProt O00391).
T6 construct: made in house
T6 sequence (O00391 33-546 limits assumed): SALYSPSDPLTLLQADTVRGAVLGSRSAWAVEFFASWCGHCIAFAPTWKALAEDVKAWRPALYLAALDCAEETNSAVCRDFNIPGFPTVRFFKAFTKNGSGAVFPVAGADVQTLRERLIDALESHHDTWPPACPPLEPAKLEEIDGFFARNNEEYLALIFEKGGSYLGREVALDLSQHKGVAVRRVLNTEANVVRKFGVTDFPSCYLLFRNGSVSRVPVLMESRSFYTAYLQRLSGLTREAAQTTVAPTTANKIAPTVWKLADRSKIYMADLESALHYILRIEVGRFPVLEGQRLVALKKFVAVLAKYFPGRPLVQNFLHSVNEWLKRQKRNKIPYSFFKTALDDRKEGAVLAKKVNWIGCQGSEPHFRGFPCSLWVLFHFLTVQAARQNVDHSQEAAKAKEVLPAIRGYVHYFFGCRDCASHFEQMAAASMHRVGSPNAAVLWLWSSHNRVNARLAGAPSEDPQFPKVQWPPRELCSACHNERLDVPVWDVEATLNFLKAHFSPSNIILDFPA
Conditions: Grossman I. et al. (2013); cited from earlier work.

For `COc1cccc2c1C(=O)c1c(O)c3c(c(O)c1C2=O)C[C@@](O)(C(=O)CO)C[C@@H]3O[C@H]1C[C@H](N)[C@H](O)[C@H](C)O1` [doxorubicin, reference compound], in [1], the Tumor volume entry was “smaller tumors than control mice”.

B1: MAb492.1: previously published inhibitory monoclonal antibody blocking the Trx CXXC redox-active site of human QSOX1 (antibody, V domains shown)
VL: DVVMTQTHKFMSTSVGDRVSITCKASQDVSTAVAWYQQKSGQSPKLLIHSASYRYTGVPDRFTGSGSGTDFTFTISSVQAEDLAVYYCQQHYSIPLTFGAGTKLELK
VH: QVQLKQSGPGLVAPSQSLSITCTVSGFSLTGYGVNWVRQSPGKGLEWLGMIWGDGRTDYKSALKSRLSITKDNSKSQVFLKMNSLQTDDTARYFCASDYYGSGSFAYWGQGTLVTVSA
Consider B1, for which, in the experiment with MmQSOX1, the “Inhibition of MmQSOX1 at 1 μM antibody” value is listed as “no effect; also recorded: No inhibition at 1 μM”. In addition, in the experiment with CpQSOX1, the “Effect on CpQSOX1 activity” value was “no effect”. Moreover, the “Effect on RnQSOX1 activity” value with RnQSOX1 is listed as “no effect”. Moreover, in the experiment with MmQSOX1 A116P mutant, the “Inhibition of MmQSOX1 A116P mutant” value is listed as “about 60%”. The “Inhibition of MmQSOX1 TLPG(138-141)VFPV mutant” value in experiment [2] is “about 50%”. Besides, the “Laminin network in ECM” value in experiment [3] is given as “did not affect”. For the same molecule, the “Epithelial cell adherence to MEF monolayer” value in [4] is recorded as “did not affect”. Moreover, in the experiment with HsQSOX1, the “Concentration inhibiting HsQSOX1 activity in vitro and in cell culture” value is listed as “near-stoichiometric concentration”.
